According to US20250145720A1:

Assays:
[1] = molecular target: mouse FcRn, biotinylated extracellular domain (FcRnECDHis-B2M-BIO) (mouse) (UniProt Q61559); test: ELISA on coated mouse FcRn at pH 6.0, apparent affinity
[2] = molecular target: human complement component C1q (human) (UniProt P02745); test: cell-based or functional assay
[3] = molecular target: human complement component C1q (human) (UniProt P02745); test: FACS, C1q on antibody-opsonized Daudi cells, Exp. 11
[4] = molecular target: human complement component C1q (human) (UniProt P02745); test: FACS, C1q on antibody-opsonized Daudi cells, average
[5] = molecular target: human complement component C1q (human) (UniProt P02745); test: FACS, C1q on antibody-opsonized Daudi cells, Exp. 6
[6] = molecular target: human complement component C1q (human) (UniProt P02745); test: FACS, C1q on antibody-opsonized Daudi cells, ranking table
[7] = molecular target: human complement component C1q (human) (UniProt P02745); test: FACS, C1q on antibody-opsonized Raji cells, Exp. 3
[8] = molecular target: human complement component C1q (human) (UniProt P02745); test: FACS, C1q on antibody-opsonized Daudi cells, Exp. 1
[9] = molecular target: human complement component C1q (human) (UniProt P02745); test: FACS, C1q on antibody-opsonized Raji cells, Exp. 2
[10] = molecular target: human complement component C1q (human) (UniProt P02745); test: FACS, C1q on antibody-opsonized Raji cells, Exp. 1
[11] = molecular target: human complement component C1q (human) (UniProt P02745); test: FACS, C1q on antibody-opsonized Daudi cells, Exp. 2
[12] = molecular target: human complement component C1q (human) (UniProt P02745); test: FACS, C1q on antibody-opsonized Daudi cells, Exp. 10
[13] = molecular target: human complement component C1q (human) (UniProt P02745); test: FACS, C1q on antibody-opsonized Daudi cells, Exp. 7
[14] = molecular target: human complement component C1q (human) (UniProt P02745); test: FACS, C1q on antibody-opsonized Daudi cells, Exp. 8
[15] = molecular target: human complement component C1q (human) (UniProt P02745); test: FACS, C1q on antibody-opsonized Daudi cells, Exp. 9
[16] = molecular target: human complement component C1q (human) (UniProt P02745); test: FACS, C1q on antibody-opsonized Raji cells, average
[17] = molecular target: human complement component C1q (human) (UniProt P02745); test: FACS, C1q on antibody-opsonized Daudi cells, Exp. 3
[18] = molecular target: human complement component C1q (human) (UniProt P02745); test: FACS, C1q on antibody-opsonized Daudi cells, Exp. 4
[19] = molecular target: human complement component C1q (human) (UniProt P02745); test: C1q ELISA, antibody coated in dilution series, 3% pooled human serum
[20] = molecular target: human complement component C1q (human) (UniProt P02745); test: FACS, C1q on antibody-opsonized Daudi cells, ranking table; no reliable fit
[21] = molecular target: human complement component C1q (human) (UniProt P02745); test: FACS, C1q on antibody-opsonized Daudi cells, Exp. 5

Chain of mouse FcRn, biotinylated extracellular domain (FcRnECDHis-B2M-BIO) (mouse) (Q61559 22-297): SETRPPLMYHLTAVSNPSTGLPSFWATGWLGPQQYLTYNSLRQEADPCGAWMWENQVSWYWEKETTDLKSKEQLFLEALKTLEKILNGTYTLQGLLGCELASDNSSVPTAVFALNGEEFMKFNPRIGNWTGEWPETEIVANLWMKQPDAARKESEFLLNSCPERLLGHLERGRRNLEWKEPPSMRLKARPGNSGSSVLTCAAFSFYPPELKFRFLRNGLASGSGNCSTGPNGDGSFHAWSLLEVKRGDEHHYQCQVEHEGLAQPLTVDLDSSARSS
Chain of human complement component C1q (human) (P02745 23-245 limits assumed, chain 1 of 3): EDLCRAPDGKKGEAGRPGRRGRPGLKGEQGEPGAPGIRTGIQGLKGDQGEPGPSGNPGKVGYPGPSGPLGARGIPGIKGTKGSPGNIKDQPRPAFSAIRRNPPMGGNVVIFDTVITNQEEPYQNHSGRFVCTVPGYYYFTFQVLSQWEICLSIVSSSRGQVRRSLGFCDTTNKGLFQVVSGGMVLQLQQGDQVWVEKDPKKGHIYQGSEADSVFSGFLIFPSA
Chain of human complement component C1q (human) (P02746 28-253 limits assumed, chain 2 of 3, further chain): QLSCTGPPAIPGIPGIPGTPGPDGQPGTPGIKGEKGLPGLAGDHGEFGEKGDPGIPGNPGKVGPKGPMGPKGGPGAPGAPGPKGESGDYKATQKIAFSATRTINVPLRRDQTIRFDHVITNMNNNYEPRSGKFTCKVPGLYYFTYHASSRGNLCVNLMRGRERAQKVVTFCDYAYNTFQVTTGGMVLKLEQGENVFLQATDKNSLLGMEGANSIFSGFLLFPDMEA
Chain of human complement component C1q (human) (P02747 29-245 limits assumed, chain 3 of 3, further chain): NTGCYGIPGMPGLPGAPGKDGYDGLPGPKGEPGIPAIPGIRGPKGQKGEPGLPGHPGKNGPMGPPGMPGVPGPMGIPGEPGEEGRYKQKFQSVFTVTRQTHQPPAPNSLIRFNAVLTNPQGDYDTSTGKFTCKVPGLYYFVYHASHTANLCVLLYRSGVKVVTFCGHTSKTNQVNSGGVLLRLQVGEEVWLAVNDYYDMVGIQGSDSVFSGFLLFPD

Substance	EC50 [1] [µg/mL]	CH50 (C1q concentration giving 50% lysis), CDC on Raji cells in C1q-depleted serum [2] [µg/mL]	EC50 of CDC on Daudi cells, 20% normal human serum [2] [µg/mL]	EC50 of CDC on Raji cells, 20% normal human serum [2] [µg/mL]	Kd [4] [nM]	Kd [6] [nM]	also measured
IgG1-005-E345Q (antibody)	0.12	–	–	–	–	–	–
IgG1-7D8-Y436D (antibody)	–	> 30	1.88	16.6	468	468	Kd [3]: 504 nM; Kd [5]: 431 nM
IgG1-7D8-Q311A (antibody)	–	0.63	0.42	1.72	10.7	10.7	Kd [7]: 12.2 nM; Kd [8]: 14.3 nM; Kd [9]: 10.1 nM; Kd [10]: 4.1 nM; Kd [11]: 13 nM
IgG1-7D8-E345R (antibody)	–	0.03	0.04	0.16	1.7	1.7	Kd [12]: 2.7 nM; Kd [13]: 0.17 nM
IgG1-005-K439E (antibody)	0.31	–	–	–	–	–	–
IgG1-005-E345N (antibody)	0.11	–	–	–	–	–	–
Ofatumumab (antibody)	–	–	–	–	7.2	–	Kd [14]: 2.7 nM; Kd [12]: 12.8 nM; Kd [5]: 5.4 nM; Kd [15]: 12.5 nM
IgG1-7D8-H433A (antibody)	–	> 30	3.44	22.6	118	118	Kd [7]: 84 nM; Kd [16]: 97.9 nM; Kd [8]: 168 nM; Kd [17]: 45.2 nM; Kd [9]: 85 nM; Kd [10]: 125 nM; Kd [18]: 181 nM; EC50 [19]: 3.33 µg/mL; Kd [11]: 76.1 nM
IgG1-7D8-K322A (antibody)	–	> 30	> 30	> 30	–	–	–
IgG1-005-E430G (antibody)	0.13	–	–	–	–	–	–
IgG1-005 (HuMab 005, wild type) (antibody)	0.14	–	–	–	–	–	–
IgG1-005-S440Y (antibody)	0.15	–	–	–	–	–	–
IgG1-7D8-E382R (antibody)	–	0.77	0.76	2.96	2.3	2.3	Kd [14]: 1.13 nM; Kd [13]: 1.18 nM
IgG1-7D8-S440K (antibody)	–	> 30	1.78	19.5	109	109	Kd [3]: 48 nM; Kd [5]: 170 nM
IgG1-7D8-K439E + IgG1-7D8-S440K mix	–	1.33	0.48	1.58	–	–	Kd [5]: 3.6 nM
IgG1-005-P247G (antibody)	0.28	–	–	–	–	–	–
IgG1-7D8-I253D/H433A (antibody)	–	> 30	4.77	> 30	5290	–	Kd [3]: 246 nM; Kd [5]: 10300 nM; Kd [20]: 5290 nM
IgG1-005-E430F (antibody)	0.11	–	–	–	–	–	–
IgG1-7D8-Q438D (antibody)	–	> 30	2.61	19.5	717	717	Kd [3]: 667 nM; Kd [21]: 767 nM
